Results published in patent US20220372160A1 (published 2022).
Positions count from the first letter of the chain named.

B1: Clone #10 (antibody, V domains shown)
VH: QVQLVQSGAEVKKPGSSVKVSCKASGGTFSNYAISWVRQAPGQGLEWMGGIIPIFGTANYAQKFQGRVTITADESTSTAYMELSSLRSEDTAVYYCARPRGDYSGYDAGPIDYWGQGTLVTVSS
VL: EIVLTQSPATLSLSPGERATLSCRASQSVSSYLAWYQQKPGQAPRLLIYDASNRATGIPARFSGSGSGTDFTLTISSLEPEDFAVYYCQQRFHFPPTFGGGTKVEIK
B2: Clone #16 (antibody, V domains shown)
VH: QVQLVQSGAEVKKPGSSVKVSCKASGGTFSSNAIGWVRQAPGQGLEWMGGIIPAFGTANYAQKFQGRVTITADESTSTAYMELSSLRSEDTAVYYCARDPVRRSPFDIWGQGTMVTVSS
VL: B1 VL with A51S, R91S, H93L, F94W, P96R
B3: Clone #11 (antibody, V domains shown)
VH: B1 VH
VL: B1 VL with L4M, A51S, F92Y, H93L, P96I
B4: Clone #2 (antibody, V domains shown)
VH: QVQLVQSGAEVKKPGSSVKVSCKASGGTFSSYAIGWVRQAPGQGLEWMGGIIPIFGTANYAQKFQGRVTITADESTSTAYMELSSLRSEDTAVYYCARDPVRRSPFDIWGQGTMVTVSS
VL: B1 VL with A51S, R91S, H93L, F94W, P96R
B5: Clone #8 (antibody, V domains shown)
VH: QLQLQESGPGLVKPSETLSLTCTVSGGSISSSSYYWGWIRQPPGKGLEWIGSIYYSGSTYYNPSLKSRVTISVDTSKNQFSLKLSSVTAADTAVYYCARGSPTYHDFDLWGRGTLVTVSS
VL: B1 VL with F92A, H93I, F94W
B6: Clone #12 (antibody, V domains shown)
VH: EVQLVESGGGLVQPGGSLRLSCAASGFTFSSYYMQWVRQAPGKGLEWVSYISSSSSTIGYADSVKGRFTISRDNAKNSLYLQMNSLRAEDTAVYYCAKGPRYDSSGYRWRYGMDVWGQGTTVTVSS
VL: DIQMTQSPSSLSASVGDRVTITCRASQSISSYLNWYQQKPGKAPKLLIYAASSLQSGVPSRFSGSGSGTDFTLTISSLQPEDFATYYCQQLALTPYTFGGGTKVEIK
B7: Clone #4 (antibody, V domains shown)
VH: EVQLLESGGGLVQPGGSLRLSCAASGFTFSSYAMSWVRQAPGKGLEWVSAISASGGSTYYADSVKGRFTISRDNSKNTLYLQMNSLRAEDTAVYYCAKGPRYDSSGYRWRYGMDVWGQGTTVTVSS
VL: B6 VL
B8: Clone #7 (antibody, V domains shown)
VH: QVQLQESGPGLVKPSETLSLTCAVSGYSISSGYYWAWIRQPPGKGLEWIGSIYHSGSTYYNPSLKSRVTISVDTSKNQFSLKLSSVTAADTAVYYCARGAGHRQFAFDIWGQGTMVTVSS
VL: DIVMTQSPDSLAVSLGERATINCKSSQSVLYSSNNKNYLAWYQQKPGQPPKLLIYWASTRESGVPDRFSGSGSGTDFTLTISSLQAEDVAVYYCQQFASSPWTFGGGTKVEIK
B9: Clone #9 (antibody, V domains shown)
VH: B8 VH
VL: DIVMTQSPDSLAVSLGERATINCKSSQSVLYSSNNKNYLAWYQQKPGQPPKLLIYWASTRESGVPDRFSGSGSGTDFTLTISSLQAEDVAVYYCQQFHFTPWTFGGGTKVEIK
B10: Clone #3 (antibody, V domains shown)
VH: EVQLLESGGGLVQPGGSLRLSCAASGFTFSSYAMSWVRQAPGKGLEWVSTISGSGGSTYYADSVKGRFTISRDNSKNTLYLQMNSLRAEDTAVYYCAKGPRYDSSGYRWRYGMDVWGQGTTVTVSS
VL: DIQMTQSPSSLSASVGDRVTITCRASQSISSYLNWYQQKPGKAPKLLIYAASSLQSGVPSRFSGSGSGTDFTLTISSLQPEDFATYYCQQLYVDPPWTFGGGTKVEIK
B11: Clone #19 (antibody, V domains shown)
VH: EVQLVESGGGLVQPGGSLRLSCAASGFTFRSYWMSWVRQAPGKGLEWVATIKQDGSEKFYVDSVKGRFTISRDNAKNSLYLQMNSLRAEDTAVYYCARDFTRWSHVNWFDPWGQGTLVTVSS
VL: EIVMTQSPATLSVSPGERATLSCRASQSVSSSLAWYQQKPGQAPRLLIFGASTRATGIPARFSGSGSGTEFTLTISSLQSEDFAVYYCQQYYHHPYTFGGGTKVEIK
B12: Clone #6 (antibody, V domains shown)
VH: B11 VH with R30S, W33G, T50N, F59Y
VL: B11 VL

Target: T1, recombinant human CD39 (human, UniProt P49961 38-478)
T1 chain: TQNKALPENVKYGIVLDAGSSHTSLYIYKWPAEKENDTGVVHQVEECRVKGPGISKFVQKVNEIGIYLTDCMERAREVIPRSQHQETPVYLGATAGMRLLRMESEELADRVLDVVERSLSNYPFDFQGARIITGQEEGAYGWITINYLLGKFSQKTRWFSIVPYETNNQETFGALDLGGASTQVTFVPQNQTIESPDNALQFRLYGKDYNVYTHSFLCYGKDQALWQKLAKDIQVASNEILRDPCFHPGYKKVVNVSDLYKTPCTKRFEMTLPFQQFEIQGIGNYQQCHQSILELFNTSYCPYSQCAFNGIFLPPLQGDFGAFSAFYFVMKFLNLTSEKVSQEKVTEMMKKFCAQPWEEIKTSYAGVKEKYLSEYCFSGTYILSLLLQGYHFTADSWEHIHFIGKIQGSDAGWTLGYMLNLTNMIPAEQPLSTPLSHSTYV
Experiment: BLI (ForteBio); IgG, monovalent
B1 was tested, and the Kd was 37.3 nM. B2 showed a Kd of 3.81 nM. In the case of B3, the Kd is reported as 14.7 nM. B4 gave a Kd of 11.6 nM. B5 was tested, and the Kd was 28.3 nM. Binder B6 has a Kd of 1.38 nM. In the case of B7, the Kd is reported as 3.65 nM. In the case of B8, the Kd is reported as 94.3 nM. Work on B9 yielded a Kd of 124 nM. With B10 the Kd was 3.25 nM. In the case of B11, the Kd is reported as 28.3 nM. With B12 the Kd was 177 nM.
